Measurements published in US20230071371A1 (Scripps Research, published 2023).
Like-named read-outs stand apart in the source and are kept apart here. Bridges are numbered along the chain shown (N, C = ends). Where no end group is shown, it is not given here. [ ]: non-standard residue; d: D form. hArg = N=C(N)NCCCC[C@H](N)C(=O)O; staple K4 = not defined here; staple K5 = not defined here; Nle = CCCC[C@H](N)C(=O)O; L12 = not defined here; L4A = not defined here; L5A = not defined here; K0 = not defined here; K4 = not defined here; K5 = not defined here; L1 = not defined here; L3 = not defined here; L4 = not defined here; L5 = not defined here; L8 = not defined here; L9 = not defined here; Aib = CC(C)(N)C(=O)O

What was measured:
Test in all cases: cell-based or functional assay
human GCGR = human GCGR (human, UniProt P47871 26-477)
human GCGR, sequence (P47871 26-477): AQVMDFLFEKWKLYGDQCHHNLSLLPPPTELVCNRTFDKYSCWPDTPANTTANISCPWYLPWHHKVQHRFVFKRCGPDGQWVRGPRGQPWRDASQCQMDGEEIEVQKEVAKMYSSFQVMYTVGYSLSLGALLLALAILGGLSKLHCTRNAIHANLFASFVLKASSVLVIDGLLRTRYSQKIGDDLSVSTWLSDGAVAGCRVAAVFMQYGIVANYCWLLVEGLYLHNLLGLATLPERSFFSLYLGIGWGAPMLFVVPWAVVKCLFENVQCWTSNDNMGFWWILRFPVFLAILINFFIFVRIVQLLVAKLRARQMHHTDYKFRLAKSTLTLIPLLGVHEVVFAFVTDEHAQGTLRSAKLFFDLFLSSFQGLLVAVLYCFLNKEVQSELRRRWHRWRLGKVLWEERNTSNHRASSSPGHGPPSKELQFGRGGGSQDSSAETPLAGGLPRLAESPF

human GLP-1R [1] = target: T1, human GLP-1R (human, UniProt P43220 24-463)
human GLP-1R (human) = human GLP-1R (human) (UniProt P43220)
human GLP-1R (human), sequence (P43220 24-463): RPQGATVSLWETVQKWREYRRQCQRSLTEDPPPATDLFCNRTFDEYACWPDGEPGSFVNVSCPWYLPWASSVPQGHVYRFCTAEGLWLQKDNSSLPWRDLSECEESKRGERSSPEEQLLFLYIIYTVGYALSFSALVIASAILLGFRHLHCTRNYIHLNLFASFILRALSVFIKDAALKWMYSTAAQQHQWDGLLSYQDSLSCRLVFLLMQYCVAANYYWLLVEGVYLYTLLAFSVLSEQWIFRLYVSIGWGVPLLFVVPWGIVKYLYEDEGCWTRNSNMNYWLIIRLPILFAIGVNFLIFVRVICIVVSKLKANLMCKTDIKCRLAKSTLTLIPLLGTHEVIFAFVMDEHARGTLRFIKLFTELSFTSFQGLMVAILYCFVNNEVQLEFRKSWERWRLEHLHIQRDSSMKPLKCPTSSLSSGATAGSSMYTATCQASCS

human GCGR (human) = human GCGR (human) (UniProt P47871)
human GCGR (human), sequence (P47871 26-477): as the sequence (P47871 26-477) above

GPR10 [2] = target: T2, GPR10 (UniProt P49683 1-370, limits assumed)
T2 sequence (looked up): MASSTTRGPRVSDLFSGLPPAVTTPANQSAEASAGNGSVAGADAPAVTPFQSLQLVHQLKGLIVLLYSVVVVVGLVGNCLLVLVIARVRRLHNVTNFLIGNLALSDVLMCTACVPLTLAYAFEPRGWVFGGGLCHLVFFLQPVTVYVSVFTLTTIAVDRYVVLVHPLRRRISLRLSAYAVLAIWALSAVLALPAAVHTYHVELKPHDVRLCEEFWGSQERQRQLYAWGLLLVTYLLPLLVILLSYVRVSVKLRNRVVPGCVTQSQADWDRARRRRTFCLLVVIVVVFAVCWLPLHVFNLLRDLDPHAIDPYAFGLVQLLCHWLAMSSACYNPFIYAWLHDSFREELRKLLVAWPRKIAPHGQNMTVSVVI

GPR10 [3] = target: T2, GPR10; remark: listed apart in the source
human NPFF2R = human NPFF2R (human, UniProt Q9Y5X5 1-522)
human NPFF2R, sequence (Q9Y5X5 whole entry): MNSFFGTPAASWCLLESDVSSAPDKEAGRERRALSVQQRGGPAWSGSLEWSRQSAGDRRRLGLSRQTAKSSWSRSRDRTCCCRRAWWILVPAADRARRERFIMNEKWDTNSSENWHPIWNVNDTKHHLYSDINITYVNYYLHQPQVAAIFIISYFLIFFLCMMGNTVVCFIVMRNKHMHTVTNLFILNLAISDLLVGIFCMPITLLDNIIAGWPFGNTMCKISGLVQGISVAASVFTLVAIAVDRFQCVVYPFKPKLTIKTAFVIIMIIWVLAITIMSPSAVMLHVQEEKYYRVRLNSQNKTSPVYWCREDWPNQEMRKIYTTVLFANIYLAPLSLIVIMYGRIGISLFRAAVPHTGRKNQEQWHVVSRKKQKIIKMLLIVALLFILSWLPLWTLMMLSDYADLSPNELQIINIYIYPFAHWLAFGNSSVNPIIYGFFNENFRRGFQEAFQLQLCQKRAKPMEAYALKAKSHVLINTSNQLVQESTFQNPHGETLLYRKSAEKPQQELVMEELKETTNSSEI

human GIPR [4] = target: T3, human GIPR (human, UniProt P48546 22-466)
T3 sequence (looked up): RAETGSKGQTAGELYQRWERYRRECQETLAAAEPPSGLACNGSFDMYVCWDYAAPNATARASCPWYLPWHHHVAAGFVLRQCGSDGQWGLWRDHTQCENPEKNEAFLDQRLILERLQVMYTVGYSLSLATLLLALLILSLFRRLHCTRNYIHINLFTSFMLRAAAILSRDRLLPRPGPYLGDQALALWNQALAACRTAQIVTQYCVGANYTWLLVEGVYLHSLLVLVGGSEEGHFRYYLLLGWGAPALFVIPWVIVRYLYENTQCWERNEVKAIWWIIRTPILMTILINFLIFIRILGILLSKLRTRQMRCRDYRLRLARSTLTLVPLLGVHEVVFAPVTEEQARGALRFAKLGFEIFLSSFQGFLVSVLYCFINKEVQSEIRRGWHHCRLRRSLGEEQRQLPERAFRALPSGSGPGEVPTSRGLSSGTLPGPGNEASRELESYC

human GIPR [5] = target: T3, human GIPR; remark: listed apart in the source
human GLP-1R [6] = target: T1, human GLP-1R; remark: listed apart in the source
human GLP-1R [7] = target: T1, human GLP-1R; remark: listed apart in the source

H[dS]QGTFTSDYSKYLDEKAAKEFIKWLLRA (linker 17-24 via K4; reading uncertain) [Conjugate 123] was tested, and the “EC50 cAMP 0% FBS” value (human GCGR) was 0.451 nM and the “EC50 cAMP 0% FBS” value (human GLP-1R [1]) was 2.37 nM.

H[dS]QGTFTSDYSKYLDECAAKEFICWLLNGGPSSGAPPPS (linker 17-24 via L4A; ends not checked) [Conjugate 135] showed an EC50 cAMP 0% FBS (human GLP-1R (human)) of 7.5 pM and an EC50 cAMP 0% FBS (human GCGR (human)) of 6.8 pM.

With SRAHQCS[Nle]ETRTCDINPAWYTG[hArg]GIRPVGRF-NH2 (linker 6-13 via L3; reading uncertain) [Conjugate 255] the “GPR10 EC50” value (GPR10 [2]) was 9.1 nM, the “GPR10 EC50 0% FBS” value (GPR10 [3]) was 8 nM and the “GPR10 EC50 10% FBS” value (GPR10 [3]) was 9.1 nM. The “NPFF2R EC50 0% FBS” value (human NPFF2R) was 150 nM and the “NPFF2R EC50 10% FBS” value (human NPFF2R) was 0.22 µM.

H[dS]QGTFTSDYSKYLDECAAKEFICWLLRA (linker 17-24 via L4A; reading uncertain) [Conjugate 136] was tested, and the “EC50 cAMP 0% FBS” value (human GCGR) was 0.559 nM and the “EC50 cAMP 0% FBS” value (human GLP-1R [1]) was 2.87 nM.

For HXQGTFTSDYSKYLDSKKAQEFVKWLLNGPSSGAPPPS (staple K4 on Lys 17, 24; Aib 2) [Conjugate 127], the “EC50 cAMP 0% FBS” value (human GCGR) was 0.009 nM and the “EC50 cAMP 0% FBS” value (human GLP-1R [1]) was 0.148 nM.

With SRAHQCS[Nle]ETRTCDINPAWYTG[hArg]GIRPVGRF-NH2 (linker 6-13 via L5; reading uncertain) [Conjugate 263] the “GPR10 EC50” value (GPR10 [2]) was 80 nM, the “GPR10 EC50 0% FBS” value (GPR10 [3]) was 7.8 nM and the “GPR10 EC50 10% FBS” value (GPR10 [3]) was 80 nM. For the same binder, the “NPFF2R EC50 0% FBS” value (human NPFF2R) was 520 nM and the “NPFF2R EC50 10% FBS” value (human NPFF2R) was over 10 µM.

For H[dS]QGTFTSDYSKYLDEKAAKEFIKWLLNGGPSSGAPPPS (linker 17-24 via K4; ends not checked) [Conjugate 122], the “EC50 cAMP 0% FBS” value (human GCGR) was 0.07 nM and the “EC50 cAMP 0% FBS” value (human GLP-1R [1]) was 0.0037 nM.

For Y[Aib]EGTFTSDYSIYKDKQAA[Aib]KFVNWLLAGGPSSGAPPPS (linker 14-21 via staple K4; reading uncertain) [Conjugate 142], the “EC50 cAMP 0% FBS” value (human GIPR [4]) was 8 pM, the “EC50 Creluc” value (human GIPR [5]) was 0.02 nM and the “EC50 Creluc” value (human GLP-1R [6]) was 0.02 nM.

SRAHQCS[Nle]ETRTCDINPAWYTG[hArg]GIRPVGRF-NH2 (linker 6-13 via L9; reading uncertain) [Conjugate 268] was tested, and the “GPR10 EC50 0% FBS” value (GPR10 [3]) was 8.2 nM, the “GPR10 EC50 10% FBS” value (GPR10 [3]) was 120 nM and the “NPFF2R EC50 0% FBS” value (human NPFF2R) was 9000 nM. The “NPFF2R EC50 10% FBS” value (human NPFF2R) was over 10 µM.

For HXQGTFTSDYSKYLDKKAAKEFKQWLLNGPSSGAPPPS (staple K4 on Lys 16, 23; Aib 2) [Conjugate 128], the “EC50 cAMP 0% FBS” value (human GCGR) was 16.2 nM and the “EC50 cAMP 0% FBS” value (human GLP-1R [1]) was 6.64 nM.

SRAHQCS[Nle]ETRTCDINPAWYTG[hArg]GIRPVGRF-NH2 (linker 6-13 via L1; reading uncertain) [Conjugate 251] was tested, and the “GPR10 EC50” value (GPR10 [2]) was 10 nM, the “GPR10 EC50 0% FBS” value (GPR10 [3]) was 5.9 nM and the “GPR10 EC50 10% FBS” value (GPR10 [3]) was 10 nM. For the same binder, the “NPFF2R EC50 0% FBS” value (human NPFF2R) was 920 nM and the “NPFF2R EC50 10% FBS” value (human NPFF2R) was 1.2 µM.

H[dS]QGTFTSDYSKYLDEKAAKEFIKWLLNGGPSSGAPPPS (linker 17-24 via K5; ends not checked) [Conjugate 121] was tested, and the “EC50 cAMP 0% FBS” value (human GCGR) was 2.54 nM and the “EC50 cAMP 0% FBS” value (human GLP-1R [1]) was 1.36 nM.

In the case of SRAHQCS[Nle]ETRTCDINPAWYTG[hArg]GIRPVGRF-NH2 (linker 6-13 via L4; reading uncertain) [Conjugate 259], the “GPR10 EC50” value (GPR10 [2]) is reported as 26 nM, the “GPR10 EC50 0% FBS” value (GPR10 [3]) is reported as 12 nM and the “GPR10 EC50 10% FBS” value (GPR10 [3]) is reported as 26 nM. For the same binder, the “NPFF2R EC50 0% FBS” value (human NPFF2R) was 470 nM and the “NPFF2R EC50 10% FBS” value (human NPFF2R) was over 10 µM.

With H[dS]QGTFTSDYSKYLDEKAAKEFIKWLLNGGPSSGAPPPS (linker 17-24 via K0; ends not checked) [Conjugate 124] the “EC50 cAMP 0% FBS” value (human GCGR) was 0.319 nM and the “EC50 cAMP 0% FBS” value (human GLP-1R [1]) was 0.049 nM.

For Y[Aib]EGTFHSDYDIYKDKQAA[Aib]KFVQWLLAGGPSSGAPPPS (linker 14-21 via staple K5; reading uncertain) [Conjugate 166], the “EC50 Creluc” value (human GIPR [5]) was 12.6 nM and the “EC50 Creluc” value (human GLP-1R [6]) was 83.9 nM.

In the case of HXQGTFTSDYSKYLDKKKAKEFKQWLLNXGRNRNNIA (staple K4 on Lys 16, 23; Aib 2, 29) [Conjugate 129], the “EC50 cAMP 0% FBS” value (human GCGR) is reported as 56 nM and the “EC50 cAMP 0% FBS” value (human GLP-1R [1]) is reported as 31.1 nM.

Y[Aib]EGTFHSDYDIYKDKQAA[Aib]KFVQWLLAGGPSSGAPPPS (linker 14-21 via staple K4; reading uncertain) [Conjugate 165] was tested, and the “EC50 Creluc” value (human GIPR [5]) was 5.31 nM and the “EC50 Creluc” value (human GLP-1R [6]) was 13.8 nM.

In the case of SRAHQCS[Nle]ETRTCDINPAWYTG[hArg]GIRPVGRF-NH2 (linker 6-13 via L8; reading uncertain) [Conjugate 267], the “GPR10 EC50 0% FBS” value (GPR10 [3]) is reported as 24 nM, the “GPR10 EC50 10% FBS” value (GPR10 [3]) is reported as 830 nM and the “NPFF2R EC50 0% FBS” value (human NPFF2R) is reported as 560 nM. For the same binder, the “NPFF2R EC50 10% FBS” value (human NPFF2R) was about 10 µM.

With YXEGTFTSDYSIYKDKQAAXKFVNWLLAGGPSSGAPPPS (staple K5 on Lys 14, 21; Aib 2, 20) [Conjugate 141] the “EC50 cAMP 0% FBS” value (human GIPR [4]) was 4.8 pM, the “EC50 cAMP 0% FBS” value (human GLP-1R [7]) was 0.022 nM and the “EC50 Creluc” value (human GIPR [5]) was 0.02 nM. The “EC50 Creluc” value (human GLP-1R [6]) was 0.01 nM.

With YXEGTFTSDYSIYKDKQAALKFVAWLLAGGPSSGAPPPS (staple K4 on Lys 14, 21; Aib 2; D-Ser 8, 11; Nle 20) [Conjugate 169] the “EC50 Creluc” value (human GIPR [5]) was 11.3 nM and the “EC50 Creluc” value (human GLP-1R [6]) was 1.32 nM.

In the case of YXEGTFHSDYDIYKDKQAALKFVAWLLAGGPSSGAPPPS (staple K4 on Lys 14, 21; Aib 2; Nle 20) [Conjugate 167], the “EC50 Creluc” value (human GIPR [5]) is reported as 20.4 nM and the “EC50 Creluc” value (human GLP-1R [6]) is reported as 18.8 nM.

With YXEGTFHSDYDIYKDKQAALKFVAWLLAGGPSSGAPPPS (staple K5 on Lys 14, 21; Aib 2; Nle 20) [Conjugate 168] the “EC50 Creluc” value (human GIPR [5]) was 303 nM and the “EC50 Creluc” value (human GLP-1R [6]) was over 1000 nM.

YXEGTFTSDYSIYKDKQAALKFVAWLLAGGPSSGAPPPS (staple K5 on Lys 14, 21; Aib 2; D-Ser 8, 11; Nle 20) [Conjugate 170] was tested, and the “EC50 Creluc” value (human GIPR [5]) was 15.7 nM and the “EC50 Creluc” value (human GLP-1R [6]) was 3.74 nM.

With HXQGTFTSDYSKYLDEKAAKEFIKWLLNGRNRNNIA (staple K4 on Lys 17, 24; Aib 2) [Conjugate 125] the “EC50 cAMP 0% FBS” value (human GCGR) was 0.626 nM and the “EC50 cAMP 0% FBS” value (human GLP-1R [1]) was 0.21 nM.

With H[dS]QGTFTSDYSKYLDECAAKEFICWLLRA (linker 17-24 via L5A; reading uncertain) [Conjugate 137] the “EC50 cAMP 0% FBS” value (human GCGR) was 0.444 nM and the “EC50 cAMP 0% FBS” value (human GLP-1R [1]) was 2.02 nM.

In the case of HXQGTFTSDYSKYLDSKKAKEFVKWLLNXGPSSGAPPPS (not fully specified; staple K4 on Lys 17, 24; Aib 2, 29) [Conjugate 126], the “EC50 cAMP 0% FBS” value (human GCGR) is reported as 0.092 nM.

For SRAHQCS[Nle]ETRTCDINPAWYTG[hArg]GIRPVGRF-NH2 (linker 6-13 via L12; reading uncertain) [Conjugate 269], the “GPR10 EC50 0% FBS” value (GPR10 [3]) was 10 nM, the “GPR10 EC50 10% FBS” value (GPR10 [3]) was 120 nM and the “NPFF2R EC50 0% FBS” value (human NPFF2R) was 1600 nM. The “NPFF2R EC50 10% FBS” value (human NPFF2R) was about 8 µM.
